Experimental findings from paper doi:10.1101/575910 (bioRxiv, 2019) are described below.

By Kd is commonly meant the free concentration of one partner at which half of the binding sites on the other are occupied at equilibrium, for simple one-to-one binding. Low readings indicate higher affinity, high ones lower affinity.

The target of assay [1] is N-terminal region of Cul3 (Cul3a residues 1-379) (zebrafish, UniProt F6NVK8 1-379). The assay can be described thus: MST.
Assay [2] concerns the target Cul3 NTD lacking the first 18 amino acids (zebrafish, UniProt F6NVK8 19-379). The assay can be described thus: MST.

B1: BTB-BACK fragment of Btbd6 (Btbd6a residues 119-361) (domain or fragment)
chain: SAHPTLRERNALMFNNEQMADVHFIVGPPGESQRVPAHKYVLAVGSSVFCAMFYGDLAEGDSDIHIPDVEPAAFLILLKYMYSDEIELAPDTVLATLYAAKKYLVSALARACVGFLETSLEARNACVLLSQSRLFEEPELTQRCWEVIDAQAELALRSEGFSEIDLPTLESILHRETLNVKESVVFQAVLGWADAECRRQGLSPTSQNQRSVLGKALHLVRLPSMTLQEFADGAAQVDILTLE
modifications: NT-647 amine-reactive dye (RED-NHS kit) where used as the labelled partner in MST
In turn, B1 came in with a dissociation constant (Kd) in assay [1] of 0.012 µM.

B2: BTB domain of Plzf (Plzfa residues 8-126) (domain or fragment)
chain: MIQLQNPNHPNALLHKANQMRLAGTLCDVVIMVDSQEFHAHRTVLACTSKMFEILFHRNSQHYTLDFLSPKTFQQILEYAYTATLQAKVEDLDDLLYAAEILEIEYLEEQCLKILETIQ
modifications: NT-647 amine-reactive dye (RED-NHS kit) where used as the labelled partner in MST
With B2, the Kd in assay [1] is 2.9 µM; in assay [2], not below 20 µM.
